According to patent US20080020978A1 (Amgen, published 2008):
Square brackets hold non-standard residues; d marks the D form. 1Nal = N[C@@H](Cc1cccc2ccccc12)C(=O)O; Tic = O=C(O)[C@@H]1Cc2ccccc2CN1; Cit = NC(=O)NCCC[C@H](N)C(=O)O; Nva = CCC[C@H](N)C(=O)O; Aib = CC(C)(N)C(=O)O

B1: SEQ ID NO 879 (peptide)
peptide: Ac-WVTHRLAGLLSRSGGVVRKNFV[Aib]TDVGPFAF-NH2
SMILES: CC(=O)N[C@@H](Cc1c[nH]c2ccccc12)C(=O)N[C@H](C(=O)N[C@H](C(=O)N[C@@H](Cc1c[nH]cn1)C(=O)N[C@@H](CCCNC(=N)N)C(=O)N[C@@H](CC(C)C)C(=O)N[C@@H](C)C(=O)NCC(=O)N[C@@H](CC(C)C)C(=O)N[C@@H](CC(C)C)C(=O)N[C@@H](CO)C(=O)N[C@@H](CCCNC(=N)N)C(=O)N[C@@H](CO)C(=O)NCC(=O)NCC(=O)N[C@H](C(=O)N[C@H](C(=O)N[C@@H](CCCNC(=N)N)C(=O)N[C@@H](CCCCN)C(=O)N[C@@H](CC(N)=O)C(=O)N[C@@H](Cc1ccccc1)C(=O)N[C@H](C(=O)NC(C)(C)C(=O)N[C@H](C(=O)N[C@@H](CC(=O)O)C(=O)N[C@H](C(=O)NCC(=O)N1CCC[C@H]1C(=O)N[C@@H](Cc1ccccc1)C(=O)N[C@@H](C)C(=O)N[C@@H](Cc1ccccc1)C(N)=O)C(C)C)[C@@H](C)O)C(C)C)C(C)C)C(C)C)[C@@H](C)O)C(C)C
B2: SEQ ID NO 868 (peptide)
peptide: Ac-WVTH[Cit]LAGLLSRPGGVVRKNFVPTDVGPFAF-NH2
SMILES: CC(=O)N[C@@H](Cc1c[nH]c2ccccc12)C(=O)N[C@H](C(=O)N[C@H](C(=O)N[C@@H](Cc1c[nH]cn1)C(=O)N[C@@H](CCCNC(N)=O)C(=O)N[C@@H](CC(C)C)C(=O)N[C@@H](C)C(=O)NCC(=O)N[C@@H](CC(C)C)C(=O)N[C@@H](CC(C)C)C(=O)N[C@@H](CO)C(=O)N[C@@H](CCCNC(=N)N)C(=O)N1CCC[C@H]1C(=O)NCC(=O)NCC(=O)N[C@H](C(=O)N[C@H](C(=O)N[C@@H](CCCNC(=N)N)C(=O)N[C@@H](CCCCN)C(=O)N[C@@H](CC(N)=O)C(=O)N[C@@H](Cc1ccccc1)C(=O)N[C@H](C(=O)N1CCC[C@H]1C(=O)N[C@H](C(=O)N[C@@H](CC(=O)O)C(=O)N[C@H](C(=O)NCC(=O)N1CCC[C@H]1C(=O)N[C@@H](Cc1ccccc1)C(=O)N[C@@H](C)C(=O)N[C@@H](Cc1ccccc1)C(N)=O)C(C)C)[C@@H](C)O)C(C)C)C(C)C)C(C)C)[C@@H](C)O)C(C)C
B3: SEQ ID NO 869 (peptide)
peptide: Ac-WVTH[Cit]LAGLASRPGGVVRKNFVPTDVGPFAF-NH2
SMILES: CC(=O)N[C@@H](Cc1c[nH]c2ccccc12)C(=O)N[C@H](C(=O)N[C@H](C(=O)N[C@@H](Cc1c[nH]cn1)C(=O)N[C@@H](CCCNC(N)=O)C(=O)N[C@@H](CC(C)C)C(=O)N[C@@H](C)C(=O)NCC(=O)N[C@@H](CC(C)C)C(=O)N[C@@H](C)C(=O)N[C@@H](CO)C(=O)N[C@@H](CCCNC(=N)N)C(=O)N1CCC[C@H]1C(=O)NCC(=O)NCC(=O)N[C@H](C(=O)N[C@H](C(=O)N[C@@H](CCCNC(=N)N)C(=O)N[C@@H](CCCCN)C(=O)N[C@@H](CC(N)=O)C(=O)N[C@@H](Cc1ccccc1)C(=O)N[C@H](C(=O)N1CCC[C@H]1C(=O)N[C@H](C(=O)N[C@@H](CC(=O)O)C(=O)N[C@H](C(=O)NCC(=O)N1CCC[C@H]1C(=O)N[C@@H](Cc1ccccc1)C(=O)N[C@@H](C)C(=O)N[C@@H](Cc1ccccc1)C(N)=O)C(C)C)[C@@H](C)O)C(C)C)C(C)C)C(C)C)[C@@H](C)O)C(C)C
B4: SEQ ID NO 876 (peptide)
peptide: Ac-WVTHRLAGLLSRSGGVVRKNFV[Tic]TDVGPFAF-NH2
SMILES: CC(=O)N[C@@H](Cc1c[nH]c2ccccc12)C(=O)N[C@H](C(=O)N[C@H](C(=O)N[C@@H](Cc1c[nH]cn1)C(=O)N[C@@H](CCCNC(=N)N)C(=O)N[C@@H](CC(C)C)C(=O)N[C@@H](C)C(=O)NCC(=O)N[C@@H](CC(C)C)C(=O)N[C@@H](CC(C)C)C(=O)N[C@@H](CO)C(=O)N[C@@H](CCCNC(=N)N)C(=O)N[C@@H](CO)C(=O)NCC(=O)NCC(=O)N[C@H](C(=O)N[C@H](C(=O)N[C@@H](CCCNC(=N)N)C(=O)N[C@@H](CCCCN)C(=O)N[C@@H](CC(N)=O)C(=O)N[C@@H](Cc1ccccc1)C(=O)N[C@H](C(=O)N1Cc2ccccc2C[C@H]1C(=O)N[C@H](C(=O)N[C@@H](CC(=O)O)C(=O)N[C@H](C(=O)NCC(=O)N1CCC[C@H]1C(=O)N[C@@H](Cc1ccccc1)C(=O)N[C@@H](C)C(=O)N[C@@H](Cc1ccccc1)C(N)=O)C(C)C)[C@@H](C)O)C(C)C)C(C)C)C(C)C)[C@@H](C)O)C(C)C
B5: SEQ ID NO 873 (peptide)
peptide: Ac-WVTH[Cit][Nva]AG[Nva][Nva]T[Cit]SGGVVRKNFVPTDVGPFAF-NH2
SMILES: CCC[C@H](NC(=O)CNC(=O)[C@H](C)NC(=O)[C@H](CCC)NC(=O)[C@H](CCCNC(N)=O)NC(=O)[C@H](Cc1c[nH]cn1)NC(=O)[C@@H](NC(=O)[C@@H](NC(=O)[C@H](Cc1c[nH]c2ccccc12)NC(C)=O)C(C)C)[C@@H](C)O)C(=O)N[C@@H](CCC)C(=O)N[C@H](C(=O)N[C@@H](CCCNC(N)=O)C(=O)N[C@@H](CO)C(=O)NCC(=O)NCC(=O)N[C@H](C(=O)N[C@H](C(=O)N[C@@H](CCCNC(=N)N)C(=O)N[C@@H](CCCCN)C(=O)N[C@@H](CC(N)=O)C(=O)N[C@@H](Cc1ccccc1)C(=O)N[C@H](C(=O)N1CCC[C@H]1C(=O)N[C@H](C(=O)N[C@@H](CC(=O)O)C(=O)N[C@H](C(=O)NCC(=O)N1CCC[C@H]1C(=O)N[C@@H](Cc1ccccc1)C(=O)N[C@@H](C)C(=O)N[C@@H](Cc1ccccc1)C(N)=O)C(C)C)[C@@H](C)O)C(C)C)C(C)C)C(C)C)[C@@H](C)O
B6: PEG-peptide of SEQ ID NO 871 (peptide)
peptide: WVTHXLAGLLSXSGGVVXKNFVPTDVGPFAF
modifications: Ac-WVTH[Cit]LAGLLS[Cit]SGGVV[hArg]KNFVPTDVGPFAF-NH2; PEG-conjugated (Table 2C: in most cases at Lys^25)
B7: PEG-peptide of SEQ ID NO 864 (peptide)
peptide: WVTHRLAGLLSXSGGVVRKNFVPTDVGPFAF
modifications: Ac-WVTHRLAGLLS[hArg]SGGVVRKNFVPTDVGPFAF-NH2; PEG-conjugated (Table 2C: in most cases at Lys^25)
B8: PEG-peptide of SEQ ID NO 874 (peptide)
peptide: WVTHRXAGLLSRXGGVVRKNFVPTDVGPFAF
modifications: Ac-WVTHR[NMeLeu]AGLLSR[NMeSer]GGVVRKNFVPTDVGPFAF-NH2; PEG-conjugated (Table 2C: in most cases at Lys^25)
B9: PEG-peptide of SEQ ID NO 880 (peptide)
peptide: WVTHXLAGLLSXSGGVVXKNFVPTDVGPFAF
modifications: Ac-WVTH[Cit]LAGLLS[hArg]SGGVV[hArg]KNFVPTDVGPFAF-NH2; PEG-conjugated (Table 2C: in most cases at Lys^25)
B10: PEG-peptide of SEQ ID NO 866 (peptide)
peptide: WVTHXLAGLLSXSGGVVRKNFVPTDVGPFAF
modifications: Ac-WVTH[hArg]LAGLLS[hArg]SGGVVRKNFVPTDVGPFAF-NH2; PEG-conjugated (Table 2C: in most cases at Lys^25)
B11: PEG-peptide of SEQ ID NO 862 (peptide)
peptide: WVTHRLAGLLSXSGGVVRKNFVPTDVGPFAF
modifications: Ac-WVTHRLAGLLS[Cit]SGGVVRKNFVPTDVGPFAF-NH2; PEG-conjugated (Table 2C: in most cases at Lys^25)
B12: PEG-peptide of SEQ ID NO 865 (peptide)
peptide: WVTHXLAGLLSRSGGVVRKNFVPTDVGPFAF
modifications: Ac-WVTH[hArg]LAGLLSRSGGVVRKNFVPTDVGPFAF-NH2; PEG-conjugated (Table 2C: in most cases at Lys^25)
B13: SEQ ID NO 872 (peptide)
peptide: Ac-[1Nal]VTH[Cit]LAGLLS[Cit]SGGVVRKNFVPTDVGPFAF-NH2
SMILES: CC(=O)N[C@@H](Cc1cccc2ccccc12)C(=O)N[C@H](C(=O)N[C@H](C(=O)N[C@@H](Cc1c[nH]cn1)C(=O)N[C@@H](CCCNC(N)=O)C(=O)N[C@@H](CC(C)C)C(=O)N[C@@H](C)C(=O)NCC(=O)N[C@@H](CC(C)C)C(=O)N[C@@H](CC(C)C)C(=O)N[C@@H](CO)C(=O)N[C@@H](CCCNC(N)=O)C(=O)N[C@@H](CO)C(=O)NCC(=O)NCC(=O)N[C@H](C(=O)N[C@H](C(=O)N[C@@H](CCCNC(=N)N)C(=O)N[C@@H](CCCCN)C(=O)N[C@@H](CC(N)=O)C(=O)N[C@@H](Cc1ccccc1)C(=O)N[C@H](C(=O)N1CCC[C@H]1C(=O)N[C@H](C(=O)N[C@@H](CC(=O)O)C(=O)N[C@H](C(=O)NCC(=O)N1CCC[C@H]1C(=O)N[C@@H](Cc1ccccc1)C(=O)N[C@@H](C)C(=O)N[C@@H](Cc1ccccc1)C(N)=O)C(C)C)[C@@H](C)O)C(C)C)C(C)C)C(C)C)[C@@H](C)O)C(C)C

Each binder was assayed against CGRP1 receptor (CRLR/RAMP1 complex) of human neuroblastoma SK-N-MC cells (human, UniProt Q16602 23-461; O60894 27-148) (assay: cell-based or functional assay).
Chain of CGRP1 receptor (CRLR/RAMP1 complex) of human neuroblastoma SK-N-MC cells (Q16602 23-461, chain 1 of 2): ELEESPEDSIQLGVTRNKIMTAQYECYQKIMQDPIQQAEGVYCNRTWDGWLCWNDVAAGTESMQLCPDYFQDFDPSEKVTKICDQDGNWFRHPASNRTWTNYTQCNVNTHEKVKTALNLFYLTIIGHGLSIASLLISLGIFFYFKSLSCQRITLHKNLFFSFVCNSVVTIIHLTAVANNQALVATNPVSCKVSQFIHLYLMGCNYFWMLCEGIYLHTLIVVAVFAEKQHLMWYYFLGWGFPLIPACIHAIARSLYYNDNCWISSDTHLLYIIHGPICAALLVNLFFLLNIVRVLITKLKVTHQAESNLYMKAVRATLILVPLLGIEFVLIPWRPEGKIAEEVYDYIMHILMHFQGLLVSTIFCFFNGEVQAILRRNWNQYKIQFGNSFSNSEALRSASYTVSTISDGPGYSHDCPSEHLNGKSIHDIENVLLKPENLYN
Chain of CGRP1 receptor (CRLR/RAMP1 complex) of human neuroblastoma SK-N-MC cells (O60894 27-148, chain 2 of 2): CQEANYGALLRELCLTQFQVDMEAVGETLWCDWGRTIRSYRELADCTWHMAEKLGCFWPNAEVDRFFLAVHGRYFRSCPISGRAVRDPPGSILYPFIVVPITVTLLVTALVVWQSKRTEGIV
For Ac-WVTH[Cit]LAGLAS[Cit]SGGVVRKNFVPTDVGPFAF-NH2 [SEQ ID NO 870], the “Peptide IC50” value was 16.1 nM. With B1 the “Peptide IC50” value was 4.2 nM. B2 was tested, and the “Peptide IC50” value was 3 nM. With Ac-WVTH[Cit]LAGLASRPGGVVRKNFVPTDVGPFAF-NH2 (also: PEG-conjugated, in most cases at Lys25) [PEG-peptide of SEQ ID NO 869] the “PEG-peptide IC50” value was 565 nM. B3 was tested, and the “Peptide IC50” value was 6.19 nM. For B4, the “Peptide IC50” value was 2.33 nM. With Ac-[1Nal]VTH[Cit]LAGLLS[Cit]SGGVVRKNFVPTDVGPFAF-NH2 (also: PEG-conjugated, in most cases at Lys25) [PEG-peptide of SEQ ID NO 872] the “PEG-peptide IC50” value was 11 nM. Ac-WVTH[Cit]LAGLAS[Cit]SGGVVRKNFVPTDVGPFAF-NH2 (also: PEG-conjugated, in most cases at Lys25) [PEG-peptide of SEQ ID NO 870] was tested, and the “PEG-peptide IC50” value was greater than 1000 nM. For B5, the “Peptide IC50” value was 63 nM. For Ac-WVTH[Cit]LAGLLSRPGGVVRKNFVPTDVGPFAF-NH2 (also: PEG-conjugated, in most cases at Lys25) [PEG-peptide of SEQ ID NO 868], the “PEG-peptide IC50” value was 108 nM. With WVTHRLAGLLSXSGGVVRKNFVPTDVGPFAF (Ac-WVTHRLAGLLS[Cit]SGGVVRKNFVPTDVGPFAF-NH2) [SEQ ID NO 862] the “Peptide IC50” value was 0.58 nM. In the case of WVTHXLAGLLSXSGGVVRKNFVPTDVGPFAF (Ac-WVTH[NMeArg]LAGLLS[NMeArg]SGGVVRKNFVPTDVGPFAF-NH2) [SEQ ID NO 875], the “Peptide IC50” value is reported as 1.63 nM. For B6, the “PEG-peptide IC50” value was 3.22 nM. In the case of B7, the “PEG-peptide IC50” value is reported as 0.33 nM. In the case of WVTHXLAGLLSXSGGVVXKNFVPTDVGPFAF (Ac-WVTH[Cit]LAGLLS[Cit]SGGVV[hArg]KNFVPTDVGPFAF-NH2) [SEQ ID NO 871], the “Peptide IC50” value is reported as 0.41 nM. WVTHRLAGLLSXSGGVVRKNFVPTDVGPFAF (Ac-WVTHRLAGLLS[hArg]SGGVVRKNFVPTDVGPFAF-NH2) [SEQ ID NO 864] was tested, and the “Peptide IC50” value was 0.57 nM. For B8, the “PEG-peptide IC50” value was 208 nM. In the case of WVTHXLAGLLSXSGGVVRKNFVXTDVGPFAF (Ac-WVTH[Cit]LAGLLS[Cit]SGGVVRKNFV[Hyp]TDVGPFAF-NH2) [SEQ ID NO 877], the “Peptide IC50” value is reported as 1.81 nM. With WVTHRXAGLLSRXGGVVRKNFVPTDVGPFAF (Ac-WVTHR[NMeLeu]AGLLSR[NMeSer]GGVVRKNFVPTDVGPFAF-NH2) [SEQ ID NO 874] the “Peptide IC50” value was 2.92 nM. With WVTHXLAGLLSXSGGVVRKNFVPTDVGPFAF (Ac-WVTH[hArg]LAGLLS[hArg]SGGVVRKNFVPTDVGPFAF-NH2) [SEQ ID NO 866] the “Peptide IC50” value was 2.1 nM. For B9, the “PEG-peptide IC50” value was 2.06 nM. WVTHXLAGLLSRSGGVVRKNFVPTDVGPFAF (Ac-WVTH[hArg]LAGLLSRSGGVVRKNFVPTDVGPFAF-NH2) [SEQ ID NO 865] was tested, and the “Peptide IC50” value was 0.44 nM. In the case of B10, the “PEG-peptide IC50” value is reported as 0.37 nM. With B11 the “PEG-peptide IC50” value was 0.96 nM. For B12, the “PEG-peptide IC50” value was 0.36 nM. For B13, the “Peptide IC50” value was 1.6 nM.
